The values below come from patent publication US20220281997A1 (NANJING GENSCRIPT BIOTECH, published 2022).

First the molecules themselves.
B1: R166.G10 (antibody, V domains shown)
VH: QSVEESGGRLVTPGTPLTLTCTVSGFSLSSSAVSWVRQAPGKGLEYIGIIGSGGSTYYASWVNGRFTISKTSTTVDLKMTSLTAADTATYFCARYGGNSGGYDSFNLWGQGTLVTVSS
VL: DVVMTQTPASVSEPVGGTVTIKCQASQSIYSHLSWYQQKPGQPPKLLIHGASTLASGASSRFKASGSGTEFTLTISDLECADAATYYCQCTAGTSIYGNAFGGGTEVVVRG
notes: Rabbit monoclonal; also called clone R166.G10
B2: R166.G8 (antibody, V domains shown)
VH: LEQSGGGAEGGLVKPGGSLELCCKASGFSLSNIYWICWVRQAPGTGLEWIGCINSGSNSYTYYANWVDGRFTLSRDIDQSTGCLQLNSLTAADTAMYYCARDRDAADTSDWSLNFWGQGTLVTVSS
VL: QVLTQTPSSVSAAVGGTVTISCQSSDSVNNDNWLAWYQQKPGQPPKLLIYQASKLASGVPSRFSGSGSGTQFTLTISGVQCDDAANYYCQGTGYSSTWYVAFGGGTEVVVKG
notes: Rabbit monoclonal; also called clone R166.G8
B3: R166.G2 (antibody, V domains shown)
VH: QSLEESGGRLVKPDETLTITCTVSGIDLSSDAMSWVRQAPGKGLEWIGLINRYGNTYYASWAKGRFTISKTSTTVDLKVTSLTTEDTATYFCARYGTDSDFYFLDLWGQGTLVTVSS
VL: DIVMTQTPASVSEPVGGTVTIKCQASQSIYSYLSWYQQKPGQRPKLLIYKASKLVSGVPSRFRGSGSGTEFTLTISDLECADAASYYCQSDWLISSNGNTFGGGTEVVVTG
notes: Rabbit monoclonal; also called clone R166.G2
B4: R166.F2 (antibody, V domains shown)
VH: QSVEESGGRLVTPGTPLTLTCTASGFTISSHDMSWVRQAPGKGLEWIGYIYYGSGSTDYASWAEGRFTITRNTNENTVTLKMTSLTTEDTATYFCARGGYVGGGVDAFDPWGPGTVVTVSS
VL: AYDMTQTPASVEVAVGGTVTIKCQASQSIYTYLSWYQQKPGQPPKLLIYRASTLASGVSSRFKGSGSGTDFTLTISGAQCADAATYYCQQGALSSNIHNTFGGGTEVVVKG
notes: Rabbit monoclonal; also called clone R166.F2
B5: R166.D1 (antibody, V domains shown)
VH: QSVEESGGRLVKPDESLTLTCTVSGFSLSNYDMIWVRQAPGKGLEWIGVIYPTGTTYYANWVKGRFTISKTSTTVGLLITSPTTEDTATYFCARKPILYVDSSGWYIDLWGQGTLVTVSS
VL: AYDMTQTPSSVSAAVGGTVSIKCQASENINNYLSWYQQKPGQPPKLLIYQASRLASAVPSRFKGSGSGTQFTLTIDDLECADAATYYCQQGHSVSNDVGNVFGGGTEVVVKG
notes: Rabbit monoclonal; also called clone R166.D1
B6: R166.H8 (antibody, V domains shown)
VH: QSVEESGGRLVTPGTPLTLTCTVSGFSLSSFAMSWVRQAPGKGLEWIGIIYATGGTRDYATWAAGRFTISKTSTTVGLKMTSPTTEDTATYFCARDRSPDYSAAFNLWGQGTLVTVSS
VL: IVMTQTPSSKSVPVGDTVTINCQASESVYSNNHLAWFQQKPGQPPKLLIYSASTLESGVPSRFKGSGSGTQFTLTISGVQCDDAATYYCAGYKSSDTDGTSFGGGTEVVVKG
notes: Rabbit monoclonal; also called clone R166.H8
B7: R166.E7 (antibody, V domains shown)
VH: QSVEESGGRLVTPGTPLTLTCTVSGFSLSSFAMSWVRQAPGKGLEWIGIIYTGGTRDYATWAKGRFTISKTSTTVDLKMTSPTTEDTATYFCARDRSPDYSAAFNLWGQGTLVTVSS
VL: B6 VL
notes: Rabbit monoclonal; also called clone R166.E7

T5 sequence (VHH, as listed by the source): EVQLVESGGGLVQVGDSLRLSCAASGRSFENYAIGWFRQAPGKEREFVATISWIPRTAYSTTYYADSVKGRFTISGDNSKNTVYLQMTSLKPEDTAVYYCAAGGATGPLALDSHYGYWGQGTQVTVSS
T2 sequence (VHH, as listed by the source): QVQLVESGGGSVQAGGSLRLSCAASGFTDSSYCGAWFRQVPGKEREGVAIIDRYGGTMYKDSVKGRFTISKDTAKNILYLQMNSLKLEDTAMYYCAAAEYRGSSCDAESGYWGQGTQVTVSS
T4 sequence (VHH, as listed by the source): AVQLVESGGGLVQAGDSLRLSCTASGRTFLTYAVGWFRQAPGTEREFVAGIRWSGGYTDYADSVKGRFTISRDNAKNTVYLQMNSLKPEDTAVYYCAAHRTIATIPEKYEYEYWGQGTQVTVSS

For one assay, the target named is T1, His-tag camel-derived nanobody AS718 VHH-His (camel-derived).
T1 construct: Immunogen; recombinantly expressed with a C-terminal His tag; also called immunogen AS718; immunogen AS718 VHH-His; not shown: C-terminal His tag
T1 sequence (VHH, as listed by the source): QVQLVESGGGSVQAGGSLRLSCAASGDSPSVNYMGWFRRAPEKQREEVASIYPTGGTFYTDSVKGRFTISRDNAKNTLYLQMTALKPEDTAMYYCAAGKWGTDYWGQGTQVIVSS
The assay can be described thus: indirect ELISA, AS718 VHH-His coated, hybridoma supernatant. The protocol: The rabbit spleen was extracted and homogenized to produce a single-cell suspension, and a single-cell suspension of myeloma cells was prepared at the same time. 1.0×10⁸ splenocytes were fused with 1.2×10⁵ myeloma cells by electrofusion; the fused cells were resuspended in 100 ml of DMEM/10% FBS culture medium containing hybridoma selective agents, thymidine, hypoxanthine and aminopterin, and transferred to a 150×96-well plate in a volume of 100 μl with a pipette; and the plate was incubated at 37° C. in 6% CO₂. After 9 days of incubation, the indirect ELISA was used to evaluate the binding ability of the antibody in the supernatant to VHH-His, indicating the presence of the antibody to VHH-His.
The ELISA plate was coated with 100 μl/well of 0.5 μg/ml VHH-His or His protein in PBS at 4° C. overnight; the plate was washed with PBS-T (0.05% Tween20) and blocked with 200 μl/well of PBST containing 1% BSA at 37° C. for 0.5 hours; the blocking solution was aspirated and discarded, and 100 μl of hybridoma cell culture supernatant was added to each well and then incubated at room temperature for 1 hour; after the incubation, the supernatant was discarded, and the plate was washed three times with PBST and incubated with 100 μl/well of goat anti-rabbit IgG conjugated with horseradish peroxidase (GenScript Goat Anti-Rabbit IgG Antibody (H&L) [HRP], pAb; CAT #: A00098) at 37° C. for 0.5 hours; the plate was washed five times with PBST, and then a TMB color developing solution was added; and the plate was incubated in the dark at room temperature for 15 minutes. The reaction was stopped by adding 50 μl of 1 M HCl stop solution. The plate was read at 450 nm using a microplate reader. In FIG. 3, by the mode of indirect ELISA, immunogen AS718 VHH-His was used to coat the ELISA detection plate, and the titers of the supernatant stock solutions of 15 parent clones were detected by OD450 reading, and the cross-reactions thereof with the His-tag protein were detected at the same time to exclude non-specific combinations. In the experiment, the positive serum was used as a positive control for immunogen AS718 VHH-His, and the Anti-His antibody was used as a positive control for detection target His-tag protein in the reverse screening. The detection value greater than 0.5 was determined to be positive, and the detection value less than 0.2 was determined to be negative.
Background: ELISA stands for enzyme-linked immunosorbent assay.
As for B1, the binding result is “binds”.

B2: the binding result was “binds”.

Take B3: the binding result is “binds”.

On to B4, for which the binding result is “binds”.

Consider B5, for which the binding result is listed as “binds”.

On to B6, for which the binding result is on record as “binds”.

Turning to B7, the binding result is listed as “binds”.

Another assay has as its target T2, AS588 VHH (camel-derived).
T2 construct: One of the 10 different camel-derived nanobodies; not shown: His tag (VHH-His)
The assay can be described thus: indirect ELISA, VHH coated. The procedure:
(§1) The ELISA plate was coated with 10 different VHHs at […] in 100 μl/well of PBS at 4° C. overnight, respectively; the plate was washed with PBS-T (0.05% Tween) and blocked with 200 μl/well of PBST containing 1% BSA at 37° C. for 0.5 hours; the blocking solution was aspirated and discarded, and 100 μl of 1 μg/ml purified antibodies were added to the first well, diluted in a 3-fold gradient for a total of 11 test concentration gradients and incubated at room temperature for 1 hour; the plate was washed three times with PBST and incubated with 100 μl/well of goat anti-rabbit IgG conjugated with horseradish peroxidase (GenScript Goat Anti-Rabbit IgG Antibody (H&L) [HRP], pAb; CAT #: A00098) at 37° C. for 0.5 hours; the plate was washed five times with PBST, and then a TMB color developing solution was added; and the plate was incubated in the dark at room temperature for 15 minutes. The reaction was stopped by adding 50 μl of 1 M HCl stop solution. The plate was read at 450 nm using a microplate reader; and the binding abilities of 15 clones to VHH-His were obtained (as shown in FIGS. 6a and 6b). […] On one hand, the affinities of the antibody of the same camel-derived nanobody to different camel-derived nanobodies were different; on the other hand, the affinities of different antibodies of camel-derived nanobodies to the same camel-derived nanobody were different. However, on the whole, all the 15 purified antibodies can be recognized with 10 different camel-derived nanobodies.
As for B1, the binding result is “binds”.

As to B2, the binding result is “binds”.

Consider B3, for which the binding result is listed as “binds”.

On to B4, for which the binding result is listed as “binds”.

Consider B5, for which the binding result is “binds”.

Consider B6, for which the binding result was “binds”.

As for B7, the binding result is “binds”.

The next assay deals with T3, AS200 VHH (camel-derived).
T3 construct: One of the 10 different camel-derived nanobodies; not shown: His tag (VHH-His)
T3 sequence (VHH, as listed by the source): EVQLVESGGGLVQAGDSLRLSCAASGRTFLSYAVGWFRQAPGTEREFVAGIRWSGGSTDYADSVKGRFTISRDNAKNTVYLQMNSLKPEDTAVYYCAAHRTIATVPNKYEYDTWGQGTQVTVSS
The assay can be described thus: indirect ELISA, VHH coated. The procedure: as §1
In the case of B1, the binding result is listed as “binds”.

Take B2: the binding result is “binds”.

Turning to B3, the binding result was “binds”.

Turning to B4, the binding result is listed as “binds”.

For the molecule B5, the binding result is given as “binds”.

B6: the binding result is “binds”.

Turning to B7, the binding result was “binds”.

Another assay addresses T4, AS675 VHH (camel-derived).
T4 construct: One of the 10 different camel-derived nanobodies; not shown: His tag (VHH-His)
The assay can be described thus: indirect ELISA, VHH coated. The protocol:
as §1
Turning to B1, the binding result is “binds”.

In the case of B2, the binding result was “binds”.

As for B3, the binding result is “binds”.

Turning to B4, the binding result is given as “binds”.

Turning to B5, the binding result is “binds”.

As for B6, the binding result is listed as “binds”.

Consider B7, for which the binding result is recorded as “binds”.

The next assay has as its target T5, AS656 VHH (camel-derived).
T5 construct: One of the 10 different camel-derived nanobodies; not shown: His tag (VHH-His)
The assay can be described thus: indirect ELISA, VHH coated. The procedure: as §1
For B1, the binding result is given as “binds”.

Take B2: the binding result is given as “binds”.

On to B3, for which the binding result is “binds”.

In the case of B4, the binding result was “binds”.

For B5, the binding result is “binds”.

As for B6, the binding result is reported as “binds”.

In the case of B7, the binding result was “binds”.

The target of another assay is T6, AS519 VHH (camel-derived).
T6 construct: One of the 10 different camel-derived nanobodies; not shown: His tag (VHH-His)
T6 sequence (VHH, as listed by the source): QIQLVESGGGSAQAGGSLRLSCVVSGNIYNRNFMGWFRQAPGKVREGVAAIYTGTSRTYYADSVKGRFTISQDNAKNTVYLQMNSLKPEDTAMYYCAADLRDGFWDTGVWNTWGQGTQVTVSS
The assay can be described thus: indirect ELISA, VHH coated. The protocol:
as §1
Turning to B1, the binding result is given as “binds”.

With B2, the binding result is “binds”.

For B3, the binding result is “binds”.

For B4, the binding result is reported as “binds”.

On to B5, for which the binding result is listed as “binds”.

For B6, the binding result is “binds”.

As to B7, the binding result is on record as “binds”.

The target in a further assay is T7, AS673 VHH (camel-derived).
T7 construct: One of the 10 different camel-derived nanobodies; not shown: His tag (VHH-His)
T7 sequence (VHH, as listed by the source): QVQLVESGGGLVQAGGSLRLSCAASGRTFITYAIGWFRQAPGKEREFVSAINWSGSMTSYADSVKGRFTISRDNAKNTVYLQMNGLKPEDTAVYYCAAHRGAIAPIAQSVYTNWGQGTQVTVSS
The assay can be described thus: indirect ELISA, VHH coated. The protocol:
as §1
B1: the binding result is given as “binds”.

In the case of B2, the binding result was “binds”.

Take B3: the binding result is listed as “binds”.

In the case of B4, the binding result was “binds”.

Take B5: the binding result is “binds”.

As to B6, the binding result is given as “binds”.

Regarding B7, the binding result was “binds”.

A further assay deals with T8, AS587 VHH (camel-derived).
T8 construct: One of the 10 different camel-derived nanobodies; not shown: His tag (VHH-His)
T8 sequence (VHH, as listed by the source): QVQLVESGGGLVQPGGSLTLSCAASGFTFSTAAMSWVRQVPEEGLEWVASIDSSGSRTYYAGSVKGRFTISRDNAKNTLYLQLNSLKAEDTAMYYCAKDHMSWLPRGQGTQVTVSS
The assay can be described thus: indirect ELISA, VHH coated. The protocol:
as §1
Turning to B1, the binding result is recorded as “binds”.

With B2, the binding result is “binds”.

As to B3, the binding result is recorded as “binds”.

With B4, the binding result is given as “binds”.

As for B5, the binding result is “binds”.

As for B6, the binding result is on record as “binds”.

For the molecule B7, the binding result is “binds”.

The target in a further assay is T9, AS988 VHH (camel-derived).
T9 construct: One of the 10 different camel-derived nanobodies; not shown: His tag (VHH-His)
T9 sequence (VHH, as listed by the source): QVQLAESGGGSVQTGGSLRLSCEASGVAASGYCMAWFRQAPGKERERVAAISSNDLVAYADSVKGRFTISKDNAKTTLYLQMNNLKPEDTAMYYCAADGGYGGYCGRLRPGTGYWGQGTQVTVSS
The assay can be described thus: indirect ELISA, VHH coated. The procedure: as §1
On to B1, for which the binding result was “binds”.

For B2, the binding result was “binds”.

With B3, the binding result is “binds”.

B4: the binding result is on record as “binds”.

On to B5, for which the binding result is “binds”.

For the molecule B6, the binding result is “binds”.

With B7, the binding result is “binds”.

The target in the next assay is T10, AS325 VHH (camel-derived).
T10 construct: One of the 10 different camel-derived nanobodies; not shown: His tag (VHH-His)
T10 sequence (VHH, as listed by the source): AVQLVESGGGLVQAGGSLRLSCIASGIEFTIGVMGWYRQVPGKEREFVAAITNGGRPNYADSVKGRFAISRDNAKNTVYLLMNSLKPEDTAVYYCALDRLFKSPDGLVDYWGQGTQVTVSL
The assay can be described thus: indirect ELISA, VHH coated. The procedure:
as §1
As to B1, the binding result is given as “binds”.

As for B2, the binding result was “binds”.

For the molecule B3, the binding result was “binds”.

For the molecule B4, the binding result is on record as “binds”.

B5: the binding result was “binds”.

On to B6, for which the binding result was “binds”.

As for B7, the binding result is “binds”.

The target in another assay is T11, AS154 VHH (camel-derived).
T11 construct: One of the 10 different camel-derived nanobodies; not shown: His tag (VHH-His)
T11 sequence (VHH, as listed by the source): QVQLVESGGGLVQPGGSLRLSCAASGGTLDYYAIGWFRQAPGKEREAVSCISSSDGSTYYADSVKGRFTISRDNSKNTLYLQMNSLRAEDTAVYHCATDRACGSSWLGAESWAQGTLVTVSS
The assay can be described thus: indirect ELISA, VHH coated. The procedure:
as §1
In the case of B1, the binding result was “binds”.

Take B2: the binding result is given as “binds”.

For the molecule B3, the binding result is listed as “binds”.

For B4, the binding result is “binds”.

B5: the binding result is “binds”.

Turning to B6, the binding result is reported as “binds”.

With B7, the binding result was “binds”.
